For this experiment, the target named is T1, MBP-ORC1 CDK123 (human, UniProt Q13415 1-861, S258A | S273A | T375A).
T1 sequence: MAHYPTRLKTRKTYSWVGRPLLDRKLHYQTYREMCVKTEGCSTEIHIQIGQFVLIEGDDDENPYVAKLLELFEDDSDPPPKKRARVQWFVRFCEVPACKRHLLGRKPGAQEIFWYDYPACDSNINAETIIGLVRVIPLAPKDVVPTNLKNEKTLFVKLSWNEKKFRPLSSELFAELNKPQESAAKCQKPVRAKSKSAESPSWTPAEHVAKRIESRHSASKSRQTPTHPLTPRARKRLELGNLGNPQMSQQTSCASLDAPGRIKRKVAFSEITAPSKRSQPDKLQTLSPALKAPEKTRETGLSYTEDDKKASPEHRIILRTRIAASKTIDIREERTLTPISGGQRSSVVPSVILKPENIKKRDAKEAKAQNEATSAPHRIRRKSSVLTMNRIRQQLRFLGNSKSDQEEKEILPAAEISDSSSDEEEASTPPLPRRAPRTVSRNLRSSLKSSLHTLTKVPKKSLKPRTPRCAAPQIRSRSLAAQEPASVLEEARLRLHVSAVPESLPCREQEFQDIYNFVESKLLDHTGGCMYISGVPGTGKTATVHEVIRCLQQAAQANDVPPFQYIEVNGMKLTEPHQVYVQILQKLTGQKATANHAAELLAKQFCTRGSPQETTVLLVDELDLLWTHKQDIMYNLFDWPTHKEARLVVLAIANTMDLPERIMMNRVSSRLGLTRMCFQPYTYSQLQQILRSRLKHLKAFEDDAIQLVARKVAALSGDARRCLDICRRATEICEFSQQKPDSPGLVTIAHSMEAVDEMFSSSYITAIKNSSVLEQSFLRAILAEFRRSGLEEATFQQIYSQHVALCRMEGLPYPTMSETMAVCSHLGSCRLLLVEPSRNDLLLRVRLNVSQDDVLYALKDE
Kind of experiment: pull-down.

B1: GST-CDC6 (natural protein)
chain: MPQTRSQAQATISFPKRKLSRALNKAKNSSDAKLEPTNVQTVTCSPRVKALPLSPRKRLGDDNLCNTPHLPPCSPPKQGKKENGPPHSHTLKGRRLVFDNQLTIKSPSKRELAKVHQNKILSSVRKSQEITTNSEQRCPLKKESACVRLFKQEGTCYQQAKLVLNTAVPDRLPAREREMDVIRNFLREHICGKKAGSLYLSGAPGTGKTACLSRILQDLKKELKGFKTIMLNCMSLRTAQAVFPAIAQEICQEEVSRPAGKDMMRKLEKHMTAEKGPMIVLVLDEMDQLDSKGQDVLYTLFEWPWLSNSHLVLIGIANTLDLTDRILPRLQAREKCKPQLLNFPPYTRNQIVTILQDRLNQVSRDQVLDNAAVQFCARKVSAVSGDVRKALDVCRRAIEIVESDVKSQTILKPLSECKSPSEPLIPKRVGLIHISQVISEVDGNRMTLSQEGAQDSFPLQQKILVCSLMLLIRQLKIKEVTLGKLYEAYSKVCRKQQVAAVDQSECLSLSGLLEARGILGLKRNKETRLTKVFFKIEEKEIEHALKDKALIGNILATGLP
Turning to B1, the binding result is reported as “binds”.

(Values after doi:10.1101/681668 (bioRxiv, 2019).)
